According to patent US8987424B2, “CA6 antigen-specific cytotoxic conjugate and methods of using the same” (ImmunoGen, Inc., priority 2003, dated 2015):

Experiments:
KB tumor xenografts = experiment: Subcutaneous KB tumor xenograft efficacy study; format: in vivo, SCID mice
Protocol: Tumor cells were inoculated on day 0, and the first treatment was given on day 6. Immunoconjugate treatments continued daily for a total of 5 doses. PBS control animals were euthanized once tumor volumes exceeded 1500 mm^3. The conjugate was given at a dose of 150 or 225 μg/kg DM1, corresponding to antibody concentrations of 5.7 and 8.5 mg/kg respectively. The body weights (FIG. 25B) of the mice were monitored during the course of the study.
A subcutaneous model of the human cervical carcinoma cell-line, KB, was developed. KB cells were grown in vitro, collected, and 5×10^6 cells in a 100 μL of serum free medium were injected under the right shoulder of each mouse and allowed to grow for 6 days to an average tumor volume of 144±125 mm^3 at which time drug treatment was initiated. Mice were given either PBS, conjugate at 150 μg/kg DM1, or conjugate at 225 μg/kg DM1 (2 mice per group) intravenously every day for 5 days. Toxic responses were monitored daily during the treatment. Tumor volumes (FIG. 25A) and corresponding body weights (FIG. 25B) were monitored throughout the study.

KB cells = experiment: Flow cytometry binding assay; parameters: species or system human; settings: KB
Protocol: Cells were maintained in a 37° C., 5% CO2 humidified incubator.
(§1) Cells ([…]) were incubated, on ice for 3-4 h, with serially diluted concentrations of the DS6 antibody prepared in FACS buffer (2% goat serum, RPMI) into 96-well plates. The cells were spun down in a table top centrifuge at 1500 rpm for 5 min at 4° C. After removing the media, the wells were then refilled with 150 μl of FACS buffer. The wash step was then repeated. FITC-labeled goat anti-mouse IgG (Jackson Immunoresearch) was diluted 1:100 to FACS buffer and incubated with the cells for 1 h on ice. The plate was covered in foil to prevent photobleaching of the signal. After two washes, the cells were fixed with 1% formaldehyde and analyzed on a flow cytometer.
The affinity of the purified huIgG was compared with muDS6 by flow cytometry. In the first set of experiments direct binding to a CA6-expressing cell line, KB, was measured. […] To confirm that the huDS6 versions retain the affinity of muDS6, competitive binding experiments were conducted. The advantage of this format is that the same detection system is used for both murine and human antibodies; that is biotin-muDS6/streptavidin-DTAF.
The binding was conducted essentially as described for FIG. 20 except that KB cells were used rather than CaOv-3 cells.

BT-20 cells = experiment: Flow cytometry binding assay; parameters: species or system human
Protocol: (§2) Flow cytometric analysis was used to localize the DS6 epitope, CA6, to the cell surface. Human cell lines were obtained from the American Type Culture Collection (ATCC) with the exception of OVCAR5 (Kearse et al., Int. J. Cancer 88(6):866-872 (2000)), OVCAR8 and IGROV1 cells (M. Seiden, Massachusetts General Hospital). All cells were grown in RPMI 1640 supplemented with 4 mM L-glutamine, 50 U/ml penicillin, 50 μg/ml streptomycin (Cambrex Bio Science, Rockland, Me.) and 10% v/v fetal bovine serum (Atlas Biologicals, Fort Collins, Colo.), referred hereafter as culture media. Cells were maintained in a 37° C., 5% CO2 humidified incubator.
as §1

Colo205 cells = experiment: Flow cytometry binding assay; parameters: species or system human; settings: Colo205, antigen negative cell line
Protocol: as §2, §1

OVCAR5 cells = experiment: Flow cytometry binding assay; parameters: species or system human
Protocol: as §2, §1

ZR-75-1 cells = experiment: Flow cytometry binding assay; parameters: species or system human
Protocol: as §2, §1

Caov-4 cells = experiment: Flow cytometry binding assay; parameters: species or system human
Protocol: as §2, §1

T98G cells = experiment: Flow cytometry binding assay; parameters: species or system human
Protocol: as §2, §1

SW1990 cells = experiment: Flow cytometry binding assay; parameters: species or system human
Protocol: as §2, §1

SU.86.86 cells = experiment: Flow cytometry binding assay; parameters: species or system human
Protocol: as §2, §1

KLE cells = experiment: Flow cytometry binding assay; parameters: species or system human
Protocol: as §2, §1

MCF-7 cells = experiment: Flow cytometry binding assay; parameters: species or system human
Protocol: as §2, §1

T-47D cells = experiment: Flow cytometry binding assay; parameters: species or system human
Protocol: as §2, §1

MDA-MB-157 cells = experiment: Flow cytometry binding assay; parameters: species or system human
Protocol: as §2, §1

HPAC cells = experiment: Flow cytometry binding assay; parameters: species or system human
Protocol: as §2, §1

OVCAR-3 cells = experiment: Flow cytometry binding assay; parameters: species or system human; settings: OVCAR3
Protocol: as §2, §1

SK-OV-3 cells = experiment: Flow cytometry binding assay; parameters: species or system human
Protocol: as §2, §1

TOV-21G cells = experiment: Flow cytometry binding assay; parameters: species or system human
Protocol: as §2, §1

BT-483 cells = experiment: Flow cytometry binding assay; parameters: species or system human
Protocol: as §2, §1

Hs766T cells = experiment: Flow cytometry binding assay; parameters: species or system human
Protocol: as §2, §1

MDA-MB-231 cells = experiment: Flow cytometry binding assay; parameters: species or system human
Protocol: as §2, §1

BT-549 cells = experiment: Flow cytometry binding assay; parameters: species or system human
Protocol: as §2, §1

HPAF-II cells = experiment: Flow cytometry binding assay; parameters: species or system human
Protocol: as §2, §1

MDA-MB-468 cells = experiment: Flow cytometry binding assay; parameters: species or system human
Protocol: as §2, §1

PC-3 cells = experiment: Flow cytometry binding assay; parameters: species or system human
Protocol: as §2, §1

WISH cells = experiment: Flow cytometry binding assay; parameters: species or system human
Protocol: as §2, §1

BxPC-3 cells = experiment: Flow cytometry binding assay; parameters: species or system human
Protocol: as §2, §1

CAMA-1 cells = experiment: Flow cytometry binding assay; parameters: species or system human
Protocol: as §2, §1

[1] = 150 μg/kg DM1 i.v. daily for 5 days

B1: DS6-DM1: muDS6 antibody modified with SPP and conjugated to the maytansinoid DM1 (conjugate)
VH: QAYLQQSGAELVRSGASVKMSCKASGYTFTSYNMHWVKQTPGQGLEWIGYIYPGNGATNYNQKFKGKATLTADPSSSTAYMQISSLTSEDSAVYFCARGDSVPFAYWGQGTLVTVSA
VL: QIVLTQSPAIMSASPGEKVTITCSAHSSVSFMHWFQQKPGTSPKLWIYSTSSLASGVPARFGGSGSGTSYSLTISRMEAEDAATYYCQQRSSFPLTFGAGTKLELKR
KB tumor xenografts; 150 μg/kg DM1
  body weight: no weight loss
KB tumor xenografts; [1]
  time to complete tumor regression after treatment initiation: 18 days
  tumor delay: approximately 70 days
KB tumor xenografts; 225 μg/kg DM1, no tumor recurrence at day 120
  treatment outcome: cures
KB tumor xenografts; 225 μg/kg DM1 i.v. daily for 5 days
  time to complete tumor regression after treatment initiation: 14 days
KB tumor xenografts; during the 5-day treatment course, 150 and 225 μg/kg DM1
  visible signs of toxicity: no visible signs of toxicity

B2: DS6: murine anti-CA6 monoclonal antibody DS6 (ATCC deposit number PTA-4449) (antibody, V domains shown)
VH: B1 VH
VL: B1 VL
KB cells
  MMF (average maximum relative mean fluorescence): 119.56
BT-20 cells
  MMF (average maximum relative mean fluorescence): 232.20
Colo205 cells
  antigen specific binding: no antigen specific binding
OVCAR5 cells
  MMF (average maximum relative mean fluorescence): 97.10
ZR-75-1 cells
  MMF (average maximum relative mean fluorescence): 811.67
Caov-4 cells
  MMF (average maximum relative mean fluorescence): 149.00
T98G cells
  MMF (average maximum relative mean fluorescence): 35.94
T98G cells; read-out: Apparent Kd
  Kd: 0.178 nM
SW1990 cells
  MMF (average maximum relative mean fluorescence): 36.17
SU.86.86 cells
  MMF (average maximum relative mean fluorescence): 36.86
KLE cells
  MMF (maximum mean relative fluorescence): 27.48
MCF-7 cells
  MMF (average maximum relative mean fluorescence): 81.41
T-47D cells
  MMF (average maximum relative mean fluorescence): 559.58
MDA-MB-157 cells
  MMF (average maximum relative mean fluorescence): 8.635
HPAC cells
  MMF (average maximum relative mean fluorescence): 2228.00
OVCAR-3 cells
  MMF (maximum mean relative fluorescence): 21.19
SK-OV-3 cells; SK-OV-3, antigen negative cell line
  antigen specific binding: no antigen specific binding
SK-OV-3 cells; SKOV3
  MMF (maximum mean relative fluorescence): 17.53
TOV-21G cells
  MMF (average maximum relative mean fluorescence): 87.79
BT-483 cells
  MMF (average maximum relative mean fluorescence): 1911.00
Hs766T cells
  MMF (average maximum relative mean fluorescence): 182.90
MDA-MB-231 cells
  MMF (average maximum relative mean fluorescence): 31.85
BT-549 cells
  MMF (average maximum relative mean fluorescence): 71.39
HPAF-II cells
  MMF (average maximum relative mean fluorescence): 266.50
MDA-MB-468 cells
  MMF (average maximum relative mean fluorescence): 71.58
PC-3 cells
  MMF (average maximum relative mean fluorescence): 24.81
WISH cells
  MMF (average maximum relative mean fluorescence): 1133.55
BxPC-3 cells
  MMF (average maximum relative mean fluorescence): 79.99
CAMA-1 cells
  MMF (average maximum relative mean fluorescence): 12.46
